Results from patent US20210155918A1.

Key:
[1] = target: rPro^Δ473-487, recombinant human prothrombin with region 473-487 deleted (human) (UniProt P00734)
[2] = target: rPro^ΔC10, recombinant human prothrombin missing amino acids … (human) (UniProt P00734)
[3] = target: rPro^ΔN10, recombinant human prothrombin missing amino acids … (human) (UniProt P00734)
[4] = target: rPro^ΔS5V, recombinant human prothrombin with region SVLQV deleted (human) (UniProt P00734)
[5] = target: rPro^ΔSLQ, recombinant human prothrombin with amino acids Ser^478/Leu^480/Gln^481 deleted (human) (UniProt P00734)

Rate of Pro molecules cleavage by membrane-bound fXa alone (nM consumed · s^-1 · fXa^-1) [1]	Rate of Pro molecules cleavage by membrane-bound fXa alone (nM consumed · s^-1 · fXa^-1) [2]	Rate of Pro molecules cleavage by membrane-bound fXa alone (nM consumed · s^-1 · fXa^-1) [3]	Rate of Pro molecules cleavage by membrane-bound fXa alone (nM consumed · s^-1 · fXa^-1) [4]	Rate of Pro molecules cleavage by prothrombinase (nM consumed · s^-1 · fXa^-1) [1]	Rate of Pro molecules cleavage by prothrombinase (nM consumed · s^-1 · fXa^-1) [3]	Rate of Pro molecules cleavage by prothrombinase (nM consumed · s^-1 · fXa^-1) [4]	Km of prothrombinase for rPro activation [5] [µM]	kcat/Km of prothrombinase for rPro activation (IIa generation, chromogenic substrate) [5] [M⁻¹ s⁻¹]	Substance
0.53	0.35	0.7	0.8						Human fXa (from UniProt P00742) (enzyme)
				1	1.5	1.8	3.2	670000	prothrombinase (from UniProt P00742) (enzyme)
